The text below walks through data of patent US20080241867.

For the series, the system named is hybrid GFP construct containing the protease cleavage sequence SVPSGCG (SEQ ID NO:21) followed by histidine residues.

Turning to Chymotrypsin, the % GFP Released (60 minutes, 37° C.) was 11%; the Micrograms of GFP Released by Protease (overnight, IMAC beads) is 47 µg; the µg GFP Released by Protease (60 minutes, 37° C.) amounted to 10.6 µg.

Crude Bromelain: the Micrograms of GFP Released by Protease (overnight, IMAC beads) came out at 86 µg.

Regarding Elastase, the Micrograms of GFP Released by Protease (overnight, IMAC beads) was 94 µg and the “release of GFP from beads, worded” value is “The most effective enzyme was elastase, with positive results apparent within five minutes after adding the enzyme”.

Regarding Pepsin, the Micrograms of GFP Released by Protease (overnight, IMAC beads, pH 8.0) was found to be 0 µg.

For Trypsin, the % GFP Released (60 minutes, 37° C.) was determined as 4.6%; the Micrograms of GFP Released by Protease (overnight, IMAC beads); Trypsin (Sample 1) came out at 9 µg; the Micrograms of GFP Released by Protease (overnight, IMAC beads); Trypsin (Sample 2) is 56 µg; the µg GFP Released by Protease (60 minutes, 37° C.) was found to be 4.07 µg.
